Patent US20200081011

Experiments:
[1] = target: T1, GLY|FRYE (Table 1 substrate sequence)
T1 chain: GLYFRYE

[2] = target: T2, FGIF|YLNG (Table 1 substrate sequence)
T2 chain: FGIFYLNG

[3] = target: T3, HMIA|LYWG (Table 1 substrate sequence)
T3 chain: HMIALYWG

[4] = target: T4, IKIL|MFYW (Table 1 substrate sequence)
T4 chain: IKILMFYW

[5] = target: T5, cathepsin E selective internally quenched fluorescent substrate AGFSL|PA
T5 chain: AGFSLPA

[6] = target: T6, gastricsin selective internally quenched fluorescent substrate DEGW^ALQH
T6 chain: DEGWALQH

[7] = target: T7, NMKW|TRVL (Table 1 substrate sequence)
T7 chain: NMKWTRVL

[8] = target: T8, VGKW|SYRM (Table 1 substrate sequence)
T8 chain: VGKWSYRM

[9] = target: T9, DEGW|ALQH (Table 1 substrate sequence)
T9 chain: DEGWALQH

[10] = target: T10, PWTW|YGVK (Table 1 substrate sequence)
T10 chain: PWTWYGVK

B1: recombinant cathepsin E (R&D Systems, 1294-AS) (protein)
chain: IQFTESCSMDQSAKEPLINYLDMEYFGTISIGSPPQNFTVIFDTGSSNLWVPSVYCTSPACKTHSRFQPSQSSTYSQPGQSFSIQYGTGSLSGIIGADQVSVEGLTVVGQQFGESVTEPGQTFVDAEFDGILGLGYPSLAVGGVTPVFDNMMAQNLVDLPMFSVYMSSNPEGGAGSELIFGGYDHSHFSGSLNWVPVTKQAYWQIALDNIQVGGTVMFCSEGCQAIVDTGTSLITGPSDKIKQLQNAIGAAPVDGEYAVECANLNVMPDVTFTINGVPYTLSPTAYTLLDFVDGMQFCSSGFQGLDIHPPAGPLWILGDVFIRQFYSVFDRGNNRVGLAPAVP
Relative Cleavage [1]: 1 | Total Cleavage [1]: 25 | Relative Cleavage [2]: 0.88 | Total Cleavage [2]: 22 | Relative Cleavage [3]: 0.4 | Total Cleavage [3]: 10 | Relative Cleavage [4]: 0.68 | Total Cleavage [4]: 17 | selectivity of fluorescent substrate cleavage (initial velocity) for cathepsin E over cathepsin D [5]: more than 100-fold selective for cathepsin E over both cathepsin D and gastricsin | selectivity of fluorescent substrate cleavage (initial velocity) for cathepsin E over gastricsin [5]: more than 100-fold selective for cathepsin E over both cathepsin D and gastricsin

B2: recombinant gastricsin (R&D Systems, 6186-AS) (protein)
chain: SVTYEPMAYMDAAYFGEISIGTPPQNFLVLFDTGSSNLWVPSVYCQSQACTSHSRFNPSESSTYSTNGQTFSLQYGSGSLTGFFGYDTLTVQSIQVPNQEFGLSENEPGTNFVYAQFDGIMGLAYPALSVDEATTAMQGMVQEGALTSPVFSVYLSNQQGSSGGAVVFGGVDSSLYTGQIYWAPVTQELYWQIGIEEFLIGGQASGWCSEGCQAIVDTGTSLLTVPQQYMSALLQATGAQEDEYGQFLVNCNSIQNLPSLTFIINGVEFPLPPSSYILSNNGYCTVGVEPTYLSSQNGQPLWILGDVFLRSYYSVYDLGNNRVGFATAA
kcat/Km (M-1/s-1) [6]: 480000 M-1/s-1 | selectivity of fluorescent substrate cleavage (initial velocity) for gastricsin over cathepsin D [6]: greater than 120-fold selective for gastricsin over both cathepsins D and E | selectivity of fluorescent substrate cleavage (initial velocity) for gastricsin over cathepsin E [6]: greater than 120-fold selective for gastricsin over both cathepsins D and E | Relative Cleavage [7]: 0.33 | Total Cleavage [7]: 21 | Relative Cleavage [8]: 0.34 | Total Cleavage [8]: 22 | Relative Cleavage [9]: 0.47 | Total Cleavage [9]: 30 | Relative Cleavage [10]: 1 | Total Cleavage [10]: 64
